Reference: IntAct's records for PubMed 20427285

B1: Protein Z-dependent protease inhibitor (Homo sapiens), Q9UK55 (parent)
chain: MKVVPSLLLSVLLAQVWLVPGLAPSPQSPETPAPQNQTSRVVQAPKEEEEDEQEASEEKASEEEKAWLMASRQQLAKETSNFGFSLLRKISMRHDGNMVFSPFGMSLAMTGLMLGATGPTETQIKRGLHLQALKPTKPGLLPSLFKGLRETLSRNLELGLTQGSFAFIHKDFDVKETFFNLSKRYFDTECVPMNFRNASQAKRLMNHYINKETRGKIPKLFDEINPETKLILVDYILFKGKWLTPFDPVFTEVDTFHLDKYKTIKVPMMYGAGKFASTFDKNFRCHVLKLPYQGNATMLVVLMEKMGDHLALEDYLTTDLVETWLRNMKTRNMEVFFPKFKLDQKYEMHELLRQMGIRRIFSPFADLSELSATGRNLQVSRVLQRTVIEVDERGTEAVAGILSEITAYSMPPVIKVDRPFHFMIYEETSGMLLFLGRVVNPTLL

Experiments:
fa10_human F10, P00742 = variants of: B1; settings: with fa10_human F10, P00742
proz_human PROZ, P22891 [1] = variants of: B1; settings: with proz_human PROZ
proz_human PROZ, P22891 [2] = variants of: B1; settings: with proz_human PROZ; remark: listed apart in the source

proz_human PROZ, P22891, sequence (P22891 whole entry): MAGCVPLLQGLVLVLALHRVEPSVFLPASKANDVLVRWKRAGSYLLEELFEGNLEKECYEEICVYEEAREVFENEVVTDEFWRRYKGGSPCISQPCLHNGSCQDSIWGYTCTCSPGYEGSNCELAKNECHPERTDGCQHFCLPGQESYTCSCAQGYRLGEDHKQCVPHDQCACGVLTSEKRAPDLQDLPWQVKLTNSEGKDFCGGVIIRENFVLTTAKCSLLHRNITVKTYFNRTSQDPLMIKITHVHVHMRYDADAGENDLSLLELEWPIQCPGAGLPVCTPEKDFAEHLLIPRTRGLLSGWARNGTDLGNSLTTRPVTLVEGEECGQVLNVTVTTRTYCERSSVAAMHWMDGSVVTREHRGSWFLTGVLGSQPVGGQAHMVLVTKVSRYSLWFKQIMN

effect of a mutation on the interaction (fa10_human F10, P00742)	effect of a mutation on the interaction (proz_human PROZ, P22891 [1])	effect of a mutation on the interaction (proz_human PROZ, P22891 [2])	Variant
decreasing interaction strength			Y408R
with no effect	with no effect		E404A
with no effect	with no effect		E334A;E404A
with no effect	with no effect		E334A
	disrupting interaction strength	disrupting interaction strength	D95A;D259A;K260A;E404A
with no effect			D95A;D259A;K260A;D314A
